From patent publication US20210170047A1 (CASE WESTERN RESERVE UNIVERSITY, published 2021)
Ends that are not written are not given here.

Experiments:
[1] = target: T1, integrin αIIbβ3 (glycoprotein GPIIb-IIIa) on ADP-activated human platelets (human, UniProt P08514 32-1039; P05106 27-788); assay: cell-based or functional assay
[2] = target: T2, integrin GPIIb-IIIa on resting (predominantly inactive, no ADP) human platelets (human, UniProt P08514 32-1039; P05106 27-788); assay: flow cytometry, human whole blood without agonist
T2 construct: whole, on cells; also called predominantly resting platelets
T2 sequence (P08514 32-1039, chain 1 of 2): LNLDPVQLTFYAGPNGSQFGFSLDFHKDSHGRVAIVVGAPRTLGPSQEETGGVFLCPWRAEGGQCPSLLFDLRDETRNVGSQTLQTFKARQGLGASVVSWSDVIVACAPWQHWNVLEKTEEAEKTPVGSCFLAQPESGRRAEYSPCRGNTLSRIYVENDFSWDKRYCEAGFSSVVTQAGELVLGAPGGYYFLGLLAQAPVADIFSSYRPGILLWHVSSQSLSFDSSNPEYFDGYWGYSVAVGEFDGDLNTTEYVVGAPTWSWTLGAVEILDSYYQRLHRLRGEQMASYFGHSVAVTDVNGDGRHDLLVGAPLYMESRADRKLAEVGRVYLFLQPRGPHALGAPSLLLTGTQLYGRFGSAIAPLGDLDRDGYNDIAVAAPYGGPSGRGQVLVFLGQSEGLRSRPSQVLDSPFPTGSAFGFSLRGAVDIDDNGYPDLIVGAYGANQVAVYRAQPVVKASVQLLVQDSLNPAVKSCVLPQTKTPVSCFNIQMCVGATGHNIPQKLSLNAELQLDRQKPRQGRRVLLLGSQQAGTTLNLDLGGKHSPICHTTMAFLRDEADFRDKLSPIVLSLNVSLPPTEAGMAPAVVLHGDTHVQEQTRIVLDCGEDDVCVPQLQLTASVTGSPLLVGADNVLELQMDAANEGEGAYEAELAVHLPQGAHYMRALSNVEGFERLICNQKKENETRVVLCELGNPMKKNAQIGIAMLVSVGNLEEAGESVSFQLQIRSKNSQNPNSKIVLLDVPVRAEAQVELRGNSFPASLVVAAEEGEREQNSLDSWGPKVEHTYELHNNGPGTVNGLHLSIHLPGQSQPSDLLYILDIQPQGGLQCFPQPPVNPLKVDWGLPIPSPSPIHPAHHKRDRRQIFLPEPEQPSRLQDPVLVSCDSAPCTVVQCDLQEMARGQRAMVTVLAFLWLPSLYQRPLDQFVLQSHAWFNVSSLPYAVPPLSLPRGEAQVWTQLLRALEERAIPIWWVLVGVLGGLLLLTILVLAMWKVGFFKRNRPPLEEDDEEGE
T2 sequence (P05106 27-788, chain 2 of 2): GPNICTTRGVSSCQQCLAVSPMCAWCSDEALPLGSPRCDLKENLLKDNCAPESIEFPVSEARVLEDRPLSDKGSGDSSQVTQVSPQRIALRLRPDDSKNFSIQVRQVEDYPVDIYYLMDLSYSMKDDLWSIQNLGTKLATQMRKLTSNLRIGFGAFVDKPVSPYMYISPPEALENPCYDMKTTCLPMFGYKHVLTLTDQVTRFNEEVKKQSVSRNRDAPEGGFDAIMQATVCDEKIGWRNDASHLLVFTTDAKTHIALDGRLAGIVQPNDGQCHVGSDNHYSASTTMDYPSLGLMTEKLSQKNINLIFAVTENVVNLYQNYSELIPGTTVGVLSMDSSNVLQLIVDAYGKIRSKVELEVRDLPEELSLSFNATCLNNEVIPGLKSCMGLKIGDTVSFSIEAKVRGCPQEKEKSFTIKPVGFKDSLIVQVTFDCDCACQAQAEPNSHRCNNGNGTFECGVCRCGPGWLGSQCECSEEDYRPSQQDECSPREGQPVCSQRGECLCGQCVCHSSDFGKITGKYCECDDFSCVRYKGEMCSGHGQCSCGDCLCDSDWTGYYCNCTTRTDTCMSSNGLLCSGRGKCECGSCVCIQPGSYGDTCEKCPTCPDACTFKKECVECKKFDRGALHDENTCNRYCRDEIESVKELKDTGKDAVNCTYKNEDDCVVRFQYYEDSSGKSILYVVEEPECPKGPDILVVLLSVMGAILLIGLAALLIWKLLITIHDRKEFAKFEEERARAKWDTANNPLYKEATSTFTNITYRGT

[3] = target: T1, integrin αIIbβ3 (glycoprotein …); assay: dual fluorescence microscopy, co-incubation with peptide-modified liposomes
Description: The [fibrinogen: liposome] ratio in the incubation assays was maintained at 400:1 by mole, to provide a physiologically relevant competitive environment. […] A 40× oil-immersion objective was used to visualize fluorescence from platelets. Images were collected in MetaMorph™ (Universal Imaging Corp.), using an exposure time of 500 ms and intensity analysis was performed in the software accordingly. Fluorescence intensity was recorded as mean intensity per pixel area for statistical analysis. All coverslips were prepared in duplicate, and at least three fields were examined for each well.

[4] = target: T1, integrin αIIbβ3 (glycoprotein …); assay: flow cytometry, agonist-added human whole blood, 50 µM total lipid
Description: The effect of platelet activation on liposome binding was studied by a FACScan flow cytometer (Becton Dickinson) with a 488 nm laser and three color detector. For cytometry analysis whole blood aliquots with different platelet activation levels were used. The level of platelet-activation was assessed by simultaneous fluorescence staining of platelet integrin GPIIb-IIIa (with FITC-anti-CD41a) and P-Selectin (with PE-anti-CD62P). Previously we have reported on detecting progressive activation of platelets in freshly drawn blood with addition of agonists (e.g., ADP) and have confirmed that binding of RGD-modified liposomes to platelets increased in an activation-dependant manner. Following a similar protocol, whole blood aliquots containing predominantly activated platelets were incubated with PDPC-NBD-labeled cRGD-, lRGD-, or lRGE-modified liposomes at a final concentration of 50 μM total lipid. For the liposome incubated samples, FITC-anti-CD41a labeling was not used, while PE-anti-CD62P labeling was still used as an activated platelet marker. Simultaneous PE and NBD fluorescence, for gated platelet populations, was analyzed for ˜20,000 events (counts) per sample aliquot and fluorescence data were recorded accordingly. […]

[5] = target: T1, integrin αIIbβ3 (glycoprotein …); assay: flow cytometry, human whole blood with ADP pre-incubation, 50 µM total lipid
From the text: Parallel phase contrast image of the same field of view was obtained on the same microscope, by shutting off the fluorescence laser, turning on the phase contrast light source and changing the objective from fluorescence to a phase contrast one, at same magnification. To establish that the specific binding of cRGD-liposomes is predominantly to activated platelets compared to quiescent platelets, we performed flow cytometry assays similar to that described in previous publications from our group. Briefly, NBD-labeled cRGD liposomes were incubated with aliquots of freshly drawn human whole blood with or without the addition of agonist ADP. […] Following 30 min of liposome incubation, the aliquots were analyzed in a Becton-Dickinson FACScan flow cytometer for NBD fluorescence. All aliquots were measured in triplicate and approximately 15000 counts were recorded per aliquot. […] The NBD fluorescence intensity from aliquots without liposome incubation, aliquots with liposome incubation but without ADP pre-incubation, and aliquots with liposome incubation after ADP pre-incubation, were recorded as histograms and the plots were overlaid for comparison.

[6] = target: T3, P-selectin on ADP-activated human platelets (human, UniProt P16109 42-830); assay: fluorescence microscopy, static, collagen-adhered activated human platelets
T3 construct: whole, on cells; also called CD62P; P-selectins
T3 sequence (looked up): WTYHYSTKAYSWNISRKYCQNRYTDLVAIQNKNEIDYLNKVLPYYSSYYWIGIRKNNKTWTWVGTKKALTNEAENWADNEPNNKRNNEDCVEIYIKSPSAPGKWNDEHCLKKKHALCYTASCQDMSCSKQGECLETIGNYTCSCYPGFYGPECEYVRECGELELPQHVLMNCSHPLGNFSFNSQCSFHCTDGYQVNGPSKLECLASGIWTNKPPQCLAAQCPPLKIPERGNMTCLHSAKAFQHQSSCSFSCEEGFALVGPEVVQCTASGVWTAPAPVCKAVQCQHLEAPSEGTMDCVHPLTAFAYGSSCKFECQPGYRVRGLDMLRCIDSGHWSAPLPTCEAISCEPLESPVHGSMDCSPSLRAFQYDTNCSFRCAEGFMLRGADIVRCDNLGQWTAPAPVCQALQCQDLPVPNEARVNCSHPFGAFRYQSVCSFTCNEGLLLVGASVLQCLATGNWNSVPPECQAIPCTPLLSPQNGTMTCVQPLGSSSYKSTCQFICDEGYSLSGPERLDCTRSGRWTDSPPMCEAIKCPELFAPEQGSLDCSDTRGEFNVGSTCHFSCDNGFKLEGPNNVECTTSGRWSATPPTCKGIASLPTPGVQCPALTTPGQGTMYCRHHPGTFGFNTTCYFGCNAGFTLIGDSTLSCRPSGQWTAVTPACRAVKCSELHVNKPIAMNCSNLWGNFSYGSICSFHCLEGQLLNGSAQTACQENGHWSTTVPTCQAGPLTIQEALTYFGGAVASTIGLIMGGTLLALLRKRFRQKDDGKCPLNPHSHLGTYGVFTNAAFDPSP
Description: Receptor-specific binding studies in a static environment human whole blood was obtained from healthy, aspirin-refraining donors by venipuncture following IRB-approved protocol and collected in citrated tubes. Platelet-rich-plasma (PRP) was obtained from the whole blood by centrifugation (150×g, 15 min, room temperature), and platelet concentration was verified at 200×10⁶ platelets/ml. The platelets in PRP were activated using ADP at a concentration of 2×10⁻⁵M, and were allowed to adhere to glass coverslips pre-coated with collagen. […] After 1 h of incubation, the coverslips were gently washed with PBS to remove loosely bound liposomal constructs and imaged using fluorescence microscopy. […] D1 inverted fluorescence microscope fitted with a photometrics chilled CCD camera and a 63× objective using exposure time of 800 ms. To confirm that non-specific binding of the liposomes was not occurring, fluorescently-labeled peptide-modified liposomal constructs were incubated with coverslips coated with collagen only but no activated platelets, followed by gentle washing and imaged using fluorescence microscopy keeping same exposure times (800 ms).

T1 sequence (P08514 32-1039, chain 1 of 2): as the sequence (P08514 32-1039, chain 1 of 2) above
T1 sequence (P05106 27-788, chain 2 of 2): as the sequence (P05106 27-788, chain 2 of 2) above

B1: free cyclic RGD peptide cyclo-CNPRGDY(OEt)RC (peptide)
peptide: CNPRGDYRC
modifications: Y(OEt); terminal cysteines (C) cyclized through disulfide
[1]
  IC50: concentration of peptide required to inhibit fibrinogen-mediated platelet aggregation in platelet-rich plasma by 50% (aggregometry), against lRGD: ~1000 times lower than for lRGD
  IC50 estimation by aggregometry assay, against lRGD: ~100 fold lower than for lRGD (printed as 2 orders of magnitude)

B2: RGE-liposomes (liposomes surface-decorated with the negative control peptide GSSSGRGESPA) (peptide)
peptide: {DSPE‑PEG}-GSSSGRGESPA
modifications: also: displayed on liposome surface, 1 or 5 mol %
notes: also called lRGE-liposomes; constructs bearing negative control peptides
[2]
  binding result: no binding (tested: 50 µM total lipid)

B3: human fibrinogen (ligand)
chain 1: ADSGEGDFLAEGGGVRGPRVVERHQSACKDSDWPFCSDEDWNYKCPSGCRMKGLIDEVNQDFTNRINKLKNSLFEYQKNNKDSHSLTTNIMEILRGDFSSANNRDNTYNRVSEDLRSRIEVLKRKVIEKVQHIQLLQKNVRAQLVDMKRLEVDIDIKIRSCRGSCSRALAREVDLKDYEDQQKQLEQVIAKDLLPSRDRQHLPLIKMKPVPDLVPGNFKSQLQKVPPEWKALTDMPQMRMELERPGGNEITRGGSTSYGTGSETESPRNPSSAGSWNSGSSGPGSTGNRNPGSSGTGGTATWKPGSSGPGSTGSWNSGSSGTGSTGNQNPGSPRPGSTGTWNPGSSERGSAGHWTSESSVSGSTGQWHSESGSFRPDSPGSGNARPNNPDWGTFEEVSGNVSPGTRREYHTEKLVTSKGDKELRTGKEKVTSGSTTTTRRSCSKTVTKTVIGPDGHKEVTKEVVTSEDGSDCPEAMDLGTLSGIGTLDGFRHRHPDEAAFFDTASTGKTFPGFFSPMLGEFVSETESRGSESGIFTNTKESSSHHPGIAEFPSRGKSSSYSKQFTSSTSYNRGDSTFESKSYKMADEAGSEADHEGTHSTKRGHAKSRPV
chain 2: QGVNDNEEGFFSARGHRPLDKKREEAPSLRPAPPPISGGGYRARPAKAAATQKKVERKAPDAGGCLHADPDLGVLCPTGCQLQEALLQQERPIRNSVDELNNNVEAVSQTSSSSFQYMYLLKDLWQKRQKQVKDNENVVNEYSSELEKHQLYIDETVNSNIPTNLRVLRSILENLRSKIQKLESDVSAQMEYCRTPCTVSCNIPVVSGKECEEIIRKGGETSEMYLIQPDSSVKPYRVYCDMNTENGGWTVIQNRQDGSVDFGRKWDPYKQGFGNVATNTDGKNYCGLPGEYWLGNDKISQLTRMGPTELLIEMEDWKGDKVKAHYGGFTVQNEANKYQISVNKYRGTAGNALMDGASQLMGENRTMTIHNGMFFSTYDRDNDGWLTSDPRKQCSKEDGGGWWYNRCHAANPNGRYYWGGQYTWDMAKHGTDDGVVWMNWKGSWYSMRKMSMKIRPFFPQQ
chain 3: YVATRDNCCILDERFGSYCPTTCGIADFLSTYQTKVDKDLQSLEDILHQVENKTSEVKQLIKAIQLTYNPDESSKPNMIDAATLKSRKMLEEIMKYEASILTHDSSIRYLQEIYNSNNQKIVNLKEKVAQLEAQCQEPCKDTVQIHDITGKDCQDIANKGAKQSGLYFIKPLKANQQFLVYCEIDGSGNGWTVFQKRLDGSVDFKKNWIQYKEGFGHLSPTGTTEFWLGNEKIHLISTQSAIPYALRVELEDWNGRTSTADYAMFKVGPEADKYRLTYAYFAGGDAGDAFDGFDFGDDPSDKFFTSHNGMQFSTWDNDNDKFEGNCAEQDGSGWWMNKCHAGHLNGVYYQGGTYSKASTPNGYDNGIIWATWKTRWYSMKKTTMKIIPFNRLTIGEGQQHHLGGAKQAGDV
notes: the fibrinogen of human platelet-rich plasma in the aggregometry assay; also called Fg
[3]
  binding result: binds

B4: cRGD-liposomes (liposomes surface-decorated with DSPE-PEG-cRGD, cyclo-CNPRGDY(OEt)RC) (peptide)
peptide: CNPRGDYRC
modifications: not fully specified; Y(OEt); terminal cysteines cyclized through disulfide; N-terminus conjugated to DSPE-PEG lipid, displayed on the liposome surface
notes: NBD or Nanogold label; also called cyclic RGD-modified liposomes
[4]
  platelet-associated NBD fluorescence against lRGD-liposome-incubated aliquots: ~10 fold (printed as an order of magnitude)
[5]
  NBD fluorescence of ADP-activated platelets against inactive platelets: ~100 fold (printed as two orders of magnitude)

B5: DAEWVDVS-modified liposomes (liposomes surface-decorated with DSPE-PEG-DAEWVDVS) (peptide)
peptide: {DSPE‑PEG}-DAEWVDVS
modifications: also: displayed multivalently on ~150 nm liposome surface, 5 mol % (2.5-10 mol %)
notes: also called singly-targeted liposomes
[6]
  binding result: binds
